In the nanobody polyreactivity screen of Harvey et al. (2022):

Experiment: yeast display, Sf9 membrane polyspecificity reagent, FACS + sequencing; frameworks hold sequencing errors
Outline: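 Synthetic nanobody libraries on Saccharomyces cerevisiae BJ5465 were galactose-induced for 36–48 hours, stained 1 hour at 4 °C with 10% biotinylated, detergent-solubilized Sf9 membrane reagent and enriched on streptavidin microbeads. FACS then separated cells into low and high (top ~1%) gates by anti-HA (expression) and streptavidin (reagent binding) fluorescence. Genes were colony-PCR amplified, MiSeq 2 × 250 sequenced and CDR-length filtered. A clone's polyreactivity label is that of its gate of origin.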

Sequence | polyreactivity (PSR sort gate)
QVQLVESGGGLVQAGGSLPLSCAASGYTFDANAMGWYRQAPGKERELVASISSISDSTDYADSVKGRFTISRDNAKNTVYLQMNSLKPEDTAVYYCARSDVKPGRQERDYWGQGTQVTVSS | low polyreactivity
QVQLVESGGGLVQAGGSLRLSCAASGLIFWHYAMGWYIQAPGKERELVARISYGGGSTYYADSVKGRFTISRDNAKNTVYLQMISLKPEDTSVYYCNAKYYSVSQYYWGQGTQVTVSS | high polyreactivity
QVQLVESGGGLVQAGGSLRLSCAASGRIFTTYAMGWYRQAPGKERELVASISWRVGSTYYADTVKGRFTISRDNAKITVYLQMNSLKPEETAVYYCAAVGGNYHASRLRYYWGQVTQVTVSS | low polyreactivity
QVQLVESGGGLVQAGGSLRLSCADSGFTFGRYAMRWYRQATGKERELVAAISRGGSYTYYADSVKGRLTISRDNAQNTVFLQMNSLKPEDTAVYYCNIVIIWARFDYWRQGTQVTVSS | high polyreactivity
QVQLVESGGGLVQAGGSLRLSCAASGRTFPNYAMGWYRQAPGKERELVAAISYSGGTTYYADSVKGRFTISRDNAKNTVYLQMNSLKPEDTAVYDCNALRLGYGLFHYDYWGQGTQVTVSS | low polyreactivity
QVQLVESGGGLVQAGGSLRLSCAASGLTFGYYAMGWYRQAPGKERELVAAISQSGGSTYYADSVKGRFTISRDNAKNTVYLQMNSLKPEDTAVYYCATRRYGYRYDQPYSNDYWGQGTQVTVSS | low polyreactivity
QVQLVESGGGLVQAGGSLRLSCAASGFTFVYNAMGWYRQAPGKERELVAAITFSGGSTYYADSVNGRFTISRDNAKNTVYLQMNSLKPEDTAVYYCATDYPGVFVLRRSHPYDYWGQGTQVTVSS | low polyreactivity
QVQLVESGGGLVQAGGSLRLSCAASGFTFVSYAMGWYRQAPGKERELVAAITSNGGSTYYADSVKGRFTISRDNAKNTVYLQMNSLKPEDTAVYYCAAAGFWHGYFGYGYWGQGTQVTVSS | low polyreactivity
QVQLVESGGGLVQAGGSLRLSCAASGSIFYLNAMGWYRPAPGKERELVAAIRWSGGSTRYADSVKGRFTISRDNAKITVYLQLNSLKPEDTAVYSCAADTYVYTLGRYYYWGQGTQVTVSS | high polyreactivity
QVQLVESGGGLVQAGGSLRLSCASSGSIFWQNTMGWYRQAPGKERELVATITSAGSTYYADSVKGRFTISRDNAKNTVYLQMNSLKPEDTAVYYCAKGHQPGHVFHPEYGYDYWGQGTQVTVSS | low polyreactivity
QVQLVESGGGLVQAGGSLRLSCAASGSIFKKYAMGWYRQAPGKERELVAAISSTGGSTKYADSVKGRFTISRDNAKNTVYLQMNSLKPEDTAVYYCNAPGLRDYDAEYDYWGQGTQVTVSS | high polyreactivity
QVQLVESGGGLVQAGGSLRLSCAASGIIFRGYAMGWYRQAPGKERELVAAISKSGGSTYYADSVKGRFTISRDNAKNTVYLQMNSLKPEDTAVYYCAADVYKQYGYYYWGQGTQVTVSS | high polyreactivity
QVQLVESGGGLVQAGGSLRLSCAASGFIFSSNAMGWYRPAPGKERELVARITSSDGSTYYADSVKGRFTISRDNAKNTVYLQMNSLKPEDTAVYYCAKGRDATHYEYYLYSMDYWGQGTQVTVSS | low polyreactivity
QVQLVESRGGLVQAGGSLRLSCAASGSTFNYYVMGWYRQAPGKERELVAAISRSGTSTYYADSVKGRFTISRDNAKNTVYLQMNSLKPEDTAVYYCAAYQPYYARTELDYWGQGTQVTVSS | high polyreactivity
QVQLVESGGGLVQAGGSLRLSCAASGSTFYLYAMGWYRQAPGKERELVAAISWTGGSTTYADSVKGRFTISRDNAKNTVYLQMNSLKPEDTAVYYCAADEGLIDGRAWYGYWGQGTQVTVSS | low polyreactivity
QVQLVESGGGLVQAGGSLRLSCAASGLTLHGNAMGWYRQAPGKERELVATITSSGGSTFYADSVKGRFTISRDNAKNTVYLQMNSLKPEDTAVYYCNADAPYSDDYYVRFDYWGQGTQVTVSS | low polyreactivity
QVQLVESGGGLVQAGGSLRLSCAASGFIFGYYAMGWYRQAPGKERELVAAITSGTGTNYADSVKGRFTISRDNAKNTVYLQMNSLKPEDTAVYYCAAYYTWLSEFGYWGQGTQVTVSS | low polyreactivity
QVQLVESGGGLVQAGGSLRLSCAASGSIFVYNAMGWYRKATGKERELVAGITFIGGSTYYADSVKGRFTISRDNAKNTVYLQMNSLKPEDTAVYYCNADVAPGIFYGYDSWGQGTQVTVSS | low polyreactivity
QVQLVESGGGLVQAGGSLRLSCAASGRIFVANAMGWYRPAPGKERELVAAISGRGSRTYYADSVKGRFTISRDNAKNTVYLQMNSLKPEDTAVYYCAVRKNRQYTGDYWGQGTQVTVSS | high polyreactivity
QVKLVESGGGLVQAGGSLRLSCAASGSIFPRYAMGWYRQAPGKERELVAAITGSGSSTYYADSVKGRFTISRDNAKNTVYFQMNSLKPEDTAVYYCAARKARPPFPHPFDYYWGQGTQVTVSS | low polyreactivity
QVQLVESGGGLVHAGGSHRLSCAASGFSFKSYAMGWYRQAPGKERELVAAISRRCGSTNYADSVKGRFTISRDNAKNTVYLQMNSLKPEDTAVYYCNADPYNSPYQVSGPYKEDYDYWGQGTQVTVSS | high polyreactivity
QVQLVESGGGLVQAGGSLRLSCAASGSTFKPNAMGWSRQAPGKERELVAAINGSGGDTYYADSVKGRFTISRDYANNTFYLQMNSLKPEDTAVYYCAAQWGYYNYWYGYWGQGTQVTVSS | low polyreactivity

Sequence | polyreactivity (PSR sort gate)
QVQLVESGGGLVQAGGSLRLSCAASGRIFYDYTMVWYRQAPGKERDLVATITSGGNTNYADSVKGRFTISRDNAKNTVYLPMNSLKPVDTAVYYCAPSYSAKRVKTGRVWYGYWGQGTQVTVSS | low polyreactivity
QVQLVESGGGLVQAGGSLRLSCAASGSIFRSNALGWYRQAPGKERELVAAISWSGGRTYYADSVKGRFTISRDNAKNTVSLQMTSLKPEDTAVYYCAVGFRTLHGDYGYWGQGTQVTVSS | high polyreactivity
QVQLVESGGGLVQAGGSLRLSCAASGINFRTYAMGWYRQAPGKERELVAAINSDGSTYYADSVKGRFTISRDNAKITVYLQMNSLKPEDNAVYYCAAVVWRIHAYYWAVDGWYYYWGQGTQVTVSS | high polyreactivity
QVQLVESGGGLVQAGGSLRLSCAASGSILVHYSMGWYRQAPGKERELVAAISRGGSTNYADSVKGRFTISRDNAKNTVYLQMNSLKPEDTAVYYCAARRPWGEYYWGQGTQVTVSS | low polyreactivity
QVQLVESGGGIVQAGGSLRLSCAASGIIFDINSMGWYRQAPGKERELVAAITTSVDSTYYAHSVKGRFTISRDNAKNTVYLQMYSLQPEDTAVYYCSVSFVQFTQYDYWGQGTQVTVSS | low polyreactivity
QVQLVESGGGLVQAGGSLRLSCAASGFTFAYYAMGWYRQAPGKEREFVAVITWSGGDTYYADSVKGRFTISRDNAKNTVYLQMNSLKPEDTAVSYCAATYWGTRRIYAYGYWGQGTQVTVSS | high polyreactivity
QVQLVESGGGLVQAGGSLRLSCAASGLIFYLYAMGWYRQAPGKEREFVAAITTSGGSTHYADSVKGRFTISRDNAKNTVYLQMNSLKPEDTAVYYCAADDYFHGPGLEFDYWGQGTQVTVSS | low polyreactivity
QVQLVESGGGLVQAGGSLRLSCAACGRILTYYAMGWYRQAPGKERELVAAISWRAGSTYYADSVKGRFTISRDNAKNTVYLQMNSLKPEDTAVYYCAAKPYYIPTRTYSHYNYWGQGTQVTVSS | high polyreactivity
QFQLVESGGGLVQAGGSLRLSCAASGRTFYAYAMGWYRQAHGKARELVAAIRGRTYYADSVKGRFTISSDNAKNTVYLQMNSLKPEDTAVYYCAARWVPREKLMFYWGQGTQVTVSW | high polyreactivity
QVQLVESGGGLVQAGGRLSLSCAASGSIFEKNAIGWYIQAPGKERELFAAISSSGGRTNYADSVKGRYTISRDNAKITVYFQMNSLKPEDTAVYYCAAYRRGHRYPGYEYWGQGTQVTVSS | high polyreactivity
QVQLVESGGGLVQAGGSRRLSCAASGSTFRGNAMGWYRQAPGKERELVAAITWSGDDTYYADSVKGRFTISRDNAKNTVYLQMNSLKPEDTAVYYCAADLAAFTLAVAYTYDYWGQGTQVTVSS | low polyreactivity
QDQLVESGGGLVQAGGSLRLSCAASGRTFRRYTKGWYRQAPGKERELVAAISRGGSTNYADSVKGRFTISRDNAMNTFYLQMNSLKPEDTAVYYCNADYWYDWNSYDYWGQGTQVTVSS | high polyreactivity
QVQLVESGGGIVQAGGSLRLSCASSGRTFFWYAMVWYRQAPGKERELVAAITYRGGGTYYADSVKGRFTISRDNAKNTVYLQMNSLKPEDTAVYYCAAEYWVGVYLYDYWGQGTQVTVSS | high polyreactivity
QVQLVESGGGLVQAGGSLRLSCAASGSISSAYAMGWYRQAPGKERELVAVITSGGSTNYADSVKGRFTISRDNAKNTVYLQMNSLKPEDTAVYYCNADTVAPLPYDYWGQGTQVTVSS | low polyreactivity
QVQLVDSRGGLVQAGRSLRLSCAASGIIFFAYAMGWYRQAPGKERELVAAISSSGGRTYYADSVKGRFTISRDKAKNTVYLQMNSLKPEDTAVYYCNARWHGSFDYWGQGTQVTVSS | low polyreactivity
QVQLVESGGGLVQAGGSLRLSCAASGLIFRLYAMGWYIQAPGKERELVAAISGGGGSTYYADSVKGRFTISRDNAKNTVYLQMNSLKPEDTAVYYCAATYSRGYWWSEYDYWGQGTQVTVSS | low polyreactivity
QVQLVESGGGLVQAGGSLRLSCAASGYIFDYNAMGWYRQAPGKERELVAAITFRDGSTYADSVKGRFTISRDNAKNTVYLQMNSLKPEDTAVYYCNRRSQVHSHSKHDYWGQGTLVTVSS | low polyreactivity
QVQLVESGGGLVQAGGSLRLSSAASGFTFSQYAMGWYRQAPGKERELVAAISVSGGTTYYADSVKGRFTISRDNAKNTVYLQMNSLKPEDTAVYYCAARTPYSRSPYVNTSGYYYWGQGTQVTVSS | high polyreactivity
QVQHVESGGGLVQAGGSLRLSCAASGSTSDTNVMGWYRQDPGKERELVAAISYDDDRTYYADSVKGRFTISSDNAKNTVYLQMNSLKPEDTAVYYCATADDYPGDDYLEGGYWGQGTQVTVSS | low polyreactivity
QVQLVESGGGLVQAGGSLRLSCAASGRIFSLNAMGWYRQAPGNERELVAGNRKRGGSTYYADSVKGRFTISRDNAKNTLYLQMNSLKPEDTAVYYCAAQPALTYRFYYWGQGTQVTVSS | high polyreactivity
QVQLVESGGGLVQAGGSLRLSCAASGSIFALYTMGWYRPAPGKERELVAAISRRGGNTYYADSVKGRFTISRDNAKNTVYLQMNSLKPEDTAVYYCNADRLRSTHDYWGQGTQVTVSS | high polyreactivity
